Assay results reported in the FLAb antibody collection.
Values joined by “and” are separate entries in the source; they are usually repeats but may differ in a detail not shown here. Identical values can stand only once.

B1: unnamed (protein)
chain 1: QVQLVQSGVEVKKPGASVKVSCKASGYTFTNYYMYWVRQAPGQGLEWMGGINPSNGGTNFNEKFKNRVTLTTDSSTTTAYMELKSLQFDDTAVYYCARRDYRFDMGFDYWGQGTTVTVSS
chain 2: EIVLTQSPATLSLSPGERATLSCRASKGVSTSGYSYLHWYQQKPGQAPRLLIYLASYLESGVPARFSGSGSGTDFTLTISSLEPEDFAVYYCQHSRDLPLTFGGGTKVEIK
B2: unnamed (protein)
chain 1: EVQLVESGGGLVQPGGSLRLSCAASGYTFTSYVIHWVRQAPGKGLEWVGYNNPYNAGTNYNEKFKGRFTISSDKSKNTAYLQMNSLRAEDTAVYYCSRPTMLPWFAYWGQGTLVTVSS
chain 2: DIQMTQSPSSLSASVGDRVTITCRASQAVSSAVAWYQQKPGKAPKLLIYSASHRYTGVPSRFSGSGSGTDFTLTISSLQPEDFATYYCQESYSTPWTFGQGTKVEIK
B3: unnamed (protein)
chain 1: EVQLVESGGGLVQPGGSLRLSCAASGFTFTDYTMDWVRQAPGKGLEWVADVNPNSGGSIYNQRFKGRFTLSVDRSKNTLYLQMNSLRAEDTAVYYCARNLGPSFYFDYWGQGTLVTVSS
chain 2: DIQMTQSPSSLSASVGDRVTITCKASQDVSIGVAWYQQKPGKAPKLLIYSASYRYTGVPSRFSGSGSGTDFTLTISSLQPEDFATYYCQQYYIYPYTFGQGTKVEIK
B4: unnamed (protein)
chain 1: EVQLVESGGGLVQPGGSMRLSCVASGFPFSNYWMNWVRQAPGKGLEWVGEIRLKSNNYTTHYAESVKGRFTISRDDSKNSLYLQMNSLKTEDTAVYYCTRHYYFDYWGQGTLVTVSS
chain 2: DIVMTQSPLSNPVTPGEPASISCRSSKSLLHSNGITYFFWYLQKPGQSPQLLIYQMSNLASGVPDRFSGSGSGTDFTLRISRVEAEDVGVYYCAQNLELPPTFGQGTKVEIK
B5: unnamed (protein)
chain 1: QVTLRESGPALVKPTQTLTLTCTFSGFSLSTSGMSVGWIRQPPGKALEWLADIWWDDKKDYNPSLKSRLTISKDTSKNQVVLKVTNMDPADTATYYCARSMITNWYFDVWGAGTTVTVSS
chain 2: DIQMTQSPSTLSASVGDRVTITCKCQLSVGYMHWYQQKPGKAPKLLIYDTSKLASGVPSRFSGSGSGTEFTLTISSLQPDDFATYYCFQGSGYPFTFGGGTKLEIK
B6: unnamed (protein)
chain 1: EGQLVQSGGGLVHPGGSLRLSCAGSGFTFSSYGMHWVRQAPGKGLEWVSGIGTGGGTYSTDSVKGRFTISRDNAKNSLYLQMNSLRAEDMAVYYCARGDYYGSGSFFDCWGQGTLVTVSS
chain 2: DIQMTQSPSSLSASVGDRVTITCRASQGISSWLAWYQQKPEKAPKSLIYAASSLQSGVPSRFSGSGSGTDFTLTISSLQPEDFATYYCQQYNSYPPTFGQGTKLEIK
B7: unnamed (protein)
chain 1: EVQLVQSGAEVKKPGESLKISCKGSGYSFTGYNMNWVRQMPGKGLEWMGNIDPYYGGTTYNRKFKGQVTISADKSISTAYLQWSSLKASDTAMYYCARSVGPFDSWGQGTLVTVSS
chain 2: EIVLTQSPATLSLSPGERATLSCRASENVYSYLAWYQQKPGQAPRLLIYFAKTLAEGIPARFSGSGSGTDFTLTISSLEPEDFAVYYCQHHSDNPWTFGQGTKVEIK
B8: unnamed (protein)
chain 1: QVQLQESGPGLVKPSETLSLTCTVSGGSVSSGDYYWTWIRQSPGKGLEWIGHIYYSGNTNYNPSLKSRLTISIDTSKTQFSLKLSSVTAADTAIYYCVRDRVTGAFDIWGQGTMVTVSS
chain 2: DIQMTQSPSSLSASVGDRVTITCQASQDISNYLNWYQQKPGKAPKLLIYDASNLETGVPSRFSGSGSGTDFTFTISSLQPEDIATYFCQHFDHLPLAFGGGTKVEIK
B9: unnamed (protein)
chain 1: QVQLVQSGAEVKKPGASVKVSCKASGYTFTSYWMHWVRQAPGQGLEWIGNINPSNGGTNYNEKFKSKATMTRDTSTSTAYMELSSLRSEDTAVYYCELMQGYWGQGTLVTVSS
chain 2: DIVMTQSPLSNPVTLGQPVSISCRSSKSLLYKDGKTYLNWFLQRPGQSPQLLIYLMSTRASGVPDRFSGGGSGTDFTLKISRVEAEDVGVYYCQQLVEYPLTFGQGTKLEIK
B10: unnamed (protein)
chain 1: EVQLVESGGGLVQPGGSLRLSCAASGYTFIDYYMNWVRQAPGKGLEWVGDINLDNSGTHYNQKFKGRFTISRDKSKNTAYLQMNSLRAEDTAVYYCAREGVYHDYDDYAMDYWGQGTLVTVSS
chain 2: DIQMTQSPSSLSASVGDRVTITCRTSQSLVHINAITYLHWYQQKPGKAPKLLIYRVSNRFSGVPSRFSGSGSGTDFTLTISSLQPEDFATYYCGQSTHVPLTFGQGTKVEIK

Assay: patients with anti-drug antibodies; higher = more immunogenic

Protein | patients with anti-drug antibodies
B1 | 1.7%
B2 | 4.7%
B3 | 2.8%
B4 | 25% and 9.5%
B5 | 1.1%
B6 | 0%
B7 | 5%
B8 | 2.8%
B9 | 2.5%
B10 | 4.7%
